Bridges are numbered along the chain shown (N, C = ends). Where no end group is shown, it is not given here.
T1: Fluorescein-labeled cyclic gamma-loop derived peptide (disulfide 1-12; also: fluorescein label, site not given here)
T1 construct: also called fluorescent gamma loop peptide
T1 peptide: CKETWTANVGKC

B1: Thr_069 (peptide)
peptide: WCYVAGKPGDFGYCD
notes: 15-mer from the thrombin derived peptide array; also called thrombin derived peptide Thr-069
B2: Thr_111 (peptide)
peptide: ISMLEKIYIHPRYNW
notes: 15-mer from the thrombin derived peptide array
B3: Thr_031_CS (peptide)
peptide: NITRSGIESQLWRSR
notes: Thrombin derived 15-mer in which Cysteine residues have been replaced by Serine
B4: Thr_032_CS (peptide)
peptide: SGIESQLWRSRYPHK
notes: as for B3
B5: Rnd_inter_316 (peptide)
peptide: LGNKKFVSGSRFVST
notes: 15-mer from the random peptide array; also called Rnd316; Rnd 316
B6: Thr_136_CS (peptide)
peptide: RIRITDNMFSAGYKP
notes: as for B3
B7: Rnd_inter_155 (peptide)
peptide: SHNQRFVTYLGSKLG
notes: 15-mer from the random peptide array; also called Rnd155; Random2

molecular target: thrombin (aqueous liquid purified and concentrated thrombin) (UniProt P00734 44-622; P00734 44-622); assay: cell-based or functional assay

inhibition of thrombin clotting activity at 0.5 mM peptide [%]	Binder
~7	CKETWTANVGKC (disulfide 1-12) [cyclic gamma peptide]
~20	KETWTANVGK [linear gamma peptide (SEQ ID NO:1)]

Molecular target: T1, Fluorescein-labeled cyclic gamma-loop …
Assay: peptide microarray, immobilised 15-mer probed with fluorescein-labelled cyclic gamma-loop peptide; fluorescence scale 0-65535
Text: Peptides were synthesized using SPOT synthesis (Wenschuh H, et al. (2000). Coherent membrane supports for parallel microsynthesis and screening of bioactive peptides. Biopolymers 55:188-206) and were chemoselectively immobilized onto functionalized glass slides as described (Panse S, et al. (2004) Profiling of generic anti-phosphopeptide antibodies and kinases with peptide microarrays using radioactive and fluorescence-based assays. Mol Divers 8:291-299.2.). Each peptide was printed in triplicates onto the microarray. For binding studies, 100 ng of purified thrombin (Omrix biopharmaceuticals) were directly labeled with DyLight 650 (DyLight® Microscale Antibody Labeling Kits, Thermo Scientific, #84536) and diluted in blocking buffer (SuperBlockT20 (TBS) Blocking Buffer, Thermo Scientific, #37536). The microarrays were incubated with 10 μg/ml DyLight 650-Thrombin or a Fluorescein-labeled cyclic gamma-loop derived peptide for one hour at 30° C. in a HS4800 microarray processing station (Tecan) (Masch A, et al., (2010) Antibody signatures defined by high-content peptide microarray analysis. Methods Mol Biol 669:161-172).
Microarrays were washed with 0.1% Tween-20 in 1×TBS followed by 0.05% Tween-20 in 0.1×SSC and dried in a stream of nitrogen. Each microarray was scanned using GenePix Autoloader 4200AL (Molecular Devices, Pixel size: 10 μm). Signal intensities were evaluated using spot recognition software Genepix Pro 7.0 analysis software (Molecular Devices). For each peptide, the mean signal intensity of the three triplicates was extracted. Further evaluation and representation of results was performed using the statistical computing and graphics software R (Version 2.11.1, www.r-project.org).
One array included peptides based on the thrombin sequence. Any peptide isolated from this library may reflect possible regions in the thrombin protein that may interact with the gamma loop. […] The fluorescence for the strongest binding candidates (hits) was quantified on an arbitrary scale of 0-65535 (2¹⁶). Thrombin activity was assessed as described in Example 1.

Binding intensity of gamma loop [arbitrary units]	Binder
50600	B1
32800	B2
40800	B3
35100	B4
26600	B5
25300	B6
19500	B7
